# From patent publication US20030229005
# T1: Dnp-GPVNFRVC(Me)-NH2
# T1 chain: GPVNFRVX
# Tests used:
# Dnp-GPVNFRVC(Me)-NH2 = target: T1, Dnp-GPVNFRVC(Me)-NH2
# Sequence of type IV collagen, P08572 (P08572 26-1712, chain 1 of 2): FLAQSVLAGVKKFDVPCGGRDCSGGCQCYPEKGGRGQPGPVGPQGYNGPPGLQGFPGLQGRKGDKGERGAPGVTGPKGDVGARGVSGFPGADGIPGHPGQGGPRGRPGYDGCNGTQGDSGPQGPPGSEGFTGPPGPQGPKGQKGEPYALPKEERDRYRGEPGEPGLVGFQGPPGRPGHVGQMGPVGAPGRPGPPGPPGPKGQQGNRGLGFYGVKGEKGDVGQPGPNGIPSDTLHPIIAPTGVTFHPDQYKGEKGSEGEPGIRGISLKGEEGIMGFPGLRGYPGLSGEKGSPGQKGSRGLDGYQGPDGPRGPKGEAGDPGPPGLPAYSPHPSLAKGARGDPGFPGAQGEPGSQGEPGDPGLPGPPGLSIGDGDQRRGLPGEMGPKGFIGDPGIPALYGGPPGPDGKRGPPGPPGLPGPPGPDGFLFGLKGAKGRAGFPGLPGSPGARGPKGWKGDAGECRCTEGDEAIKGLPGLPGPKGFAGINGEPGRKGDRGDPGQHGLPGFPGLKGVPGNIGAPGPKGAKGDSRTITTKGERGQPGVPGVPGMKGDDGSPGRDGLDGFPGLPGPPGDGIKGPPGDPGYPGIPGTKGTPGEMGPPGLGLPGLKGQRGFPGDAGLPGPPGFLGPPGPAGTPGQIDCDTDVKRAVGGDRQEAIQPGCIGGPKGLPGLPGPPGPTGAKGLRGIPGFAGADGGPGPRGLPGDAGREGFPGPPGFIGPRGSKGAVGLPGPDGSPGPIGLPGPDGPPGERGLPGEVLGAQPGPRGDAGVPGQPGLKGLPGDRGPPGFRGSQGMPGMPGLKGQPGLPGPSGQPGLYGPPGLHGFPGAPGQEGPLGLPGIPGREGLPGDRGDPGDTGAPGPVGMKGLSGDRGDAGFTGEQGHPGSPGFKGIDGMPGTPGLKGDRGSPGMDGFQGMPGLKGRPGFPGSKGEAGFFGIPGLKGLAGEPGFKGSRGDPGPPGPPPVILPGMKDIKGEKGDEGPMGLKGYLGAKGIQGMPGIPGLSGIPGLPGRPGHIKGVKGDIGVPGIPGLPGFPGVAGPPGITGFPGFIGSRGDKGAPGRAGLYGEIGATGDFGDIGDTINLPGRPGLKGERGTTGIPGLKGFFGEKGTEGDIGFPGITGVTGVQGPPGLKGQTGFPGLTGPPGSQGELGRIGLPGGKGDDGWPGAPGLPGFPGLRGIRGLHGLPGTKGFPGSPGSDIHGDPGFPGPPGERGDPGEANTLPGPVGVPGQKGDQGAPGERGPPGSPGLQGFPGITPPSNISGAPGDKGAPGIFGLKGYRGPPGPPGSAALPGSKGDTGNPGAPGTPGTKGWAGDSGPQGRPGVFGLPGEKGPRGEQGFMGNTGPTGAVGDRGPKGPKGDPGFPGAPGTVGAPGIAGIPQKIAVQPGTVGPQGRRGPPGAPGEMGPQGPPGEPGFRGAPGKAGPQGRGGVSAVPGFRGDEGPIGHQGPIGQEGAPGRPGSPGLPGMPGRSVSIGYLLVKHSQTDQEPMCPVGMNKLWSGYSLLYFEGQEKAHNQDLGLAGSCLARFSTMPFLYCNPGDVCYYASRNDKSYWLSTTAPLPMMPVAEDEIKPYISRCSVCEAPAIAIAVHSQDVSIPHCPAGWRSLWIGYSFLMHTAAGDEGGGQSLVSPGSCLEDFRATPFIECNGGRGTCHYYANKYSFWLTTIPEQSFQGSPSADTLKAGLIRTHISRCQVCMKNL
# Sequence of type IV collagen, P08572 (chain, as listed by the source, chain 2 of 2): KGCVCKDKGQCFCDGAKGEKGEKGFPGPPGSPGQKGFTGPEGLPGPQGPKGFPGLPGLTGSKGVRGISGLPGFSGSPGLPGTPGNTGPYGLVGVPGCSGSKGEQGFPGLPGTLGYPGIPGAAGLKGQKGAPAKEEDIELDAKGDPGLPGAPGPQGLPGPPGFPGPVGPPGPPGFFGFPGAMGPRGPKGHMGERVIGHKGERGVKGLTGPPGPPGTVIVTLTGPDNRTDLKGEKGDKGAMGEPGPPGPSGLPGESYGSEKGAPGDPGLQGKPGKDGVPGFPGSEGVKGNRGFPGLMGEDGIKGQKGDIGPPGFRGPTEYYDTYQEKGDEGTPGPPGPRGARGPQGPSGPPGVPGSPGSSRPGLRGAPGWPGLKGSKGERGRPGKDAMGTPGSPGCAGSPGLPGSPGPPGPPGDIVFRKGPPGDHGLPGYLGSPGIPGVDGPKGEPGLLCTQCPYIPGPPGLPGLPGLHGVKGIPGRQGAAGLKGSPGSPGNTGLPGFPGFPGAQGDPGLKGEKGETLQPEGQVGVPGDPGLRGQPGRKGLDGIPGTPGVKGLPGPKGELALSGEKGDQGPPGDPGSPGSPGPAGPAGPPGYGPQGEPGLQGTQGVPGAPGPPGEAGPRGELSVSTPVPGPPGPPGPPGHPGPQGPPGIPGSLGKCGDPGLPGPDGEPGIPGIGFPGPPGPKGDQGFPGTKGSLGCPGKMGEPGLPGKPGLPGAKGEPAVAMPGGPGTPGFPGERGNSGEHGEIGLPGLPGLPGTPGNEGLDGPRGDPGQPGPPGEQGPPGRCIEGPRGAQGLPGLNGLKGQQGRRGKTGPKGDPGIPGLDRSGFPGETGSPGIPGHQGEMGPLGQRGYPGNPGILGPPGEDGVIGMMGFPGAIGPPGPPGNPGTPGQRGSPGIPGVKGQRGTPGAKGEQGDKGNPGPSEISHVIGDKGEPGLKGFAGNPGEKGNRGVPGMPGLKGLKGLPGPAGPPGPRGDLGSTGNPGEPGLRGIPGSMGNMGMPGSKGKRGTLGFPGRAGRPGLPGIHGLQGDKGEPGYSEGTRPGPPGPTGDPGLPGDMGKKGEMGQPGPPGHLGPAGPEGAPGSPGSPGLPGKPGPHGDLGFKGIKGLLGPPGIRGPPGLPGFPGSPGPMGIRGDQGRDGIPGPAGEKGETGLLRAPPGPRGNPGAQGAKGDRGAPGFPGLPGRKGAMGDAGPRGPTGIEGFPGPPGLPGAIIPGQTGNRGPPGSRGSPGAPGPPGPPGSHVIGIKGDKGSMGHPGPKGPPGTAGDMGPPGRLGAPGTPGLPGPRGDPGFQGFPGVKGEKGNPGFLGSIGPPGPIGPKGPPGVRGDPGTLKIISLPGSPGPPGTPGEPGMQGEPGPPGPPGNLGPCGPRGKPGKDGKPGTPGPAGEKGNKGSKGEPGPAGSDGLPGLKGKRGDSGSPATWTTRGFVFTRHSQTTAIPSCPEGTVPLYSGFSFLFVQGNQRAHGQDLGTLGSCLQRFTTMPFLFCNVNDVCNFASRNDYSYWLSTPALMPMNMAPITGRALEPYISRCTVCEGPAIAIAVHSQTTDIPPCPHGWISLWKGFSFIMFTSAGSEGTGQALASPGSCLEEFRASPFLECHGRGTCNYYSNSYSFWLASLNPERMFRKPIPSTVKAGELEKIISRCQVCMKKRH
Protein,"cleavage seen on a gel (type IV collagen, P08572)","Selectivity v. Coll-3, substrate 5 uM (Dnp-GPVNFRVC(Me)-NH2) [unitless]"
collagenase 1 (protein) FVLTEGNPRWEQTHLTYRIENYTPDLPRADVDHAIEKAFQLWSNVTPLTFTKVSEGQADIMISFVRGDHRDNSPFDGPGGNLAHAFQPGPGIGGDAHFDEDERWTNNFREYNLHRVAAHELGHSLGLSHSTDIGALMYPSYTFSGDVQLAQDDIDGIQAIYGRSQNPVQPIGPQTPKACDSKLTFDAITTIRGEVMFFKDRFYMRTNPFYPEVELNFISVFWPQLPNGLEAAYEFADRDEVRFFKGNKYWAVQGQNVLHGYPKDIYSSFGFPRTVKHIDAALSEENTGKTYFFVANKYWRYDEYKRSMDPGYPKMIAHDFPGIGHKVDAVFMKDGFFYFFHGTRQYKFDPKTKRILTLQKANSWFNCRKN,Both collagenase 1 and gelatinase B processed type IV collagen under the conditions used in our experiments,–
human Gelatinase-A (protein) YNFFPRKPKWDKNQITYRIIGYTPDLDPETVDDAFARAFQVWSDVTPLRFSRIHDGEADIMINFGRWEHGDGYPFDGKDGLLAHAFAPGTGVGGDSHFDDDELWTLGEGQVVRVKYGNADGEYCKFPFLFNGKEYNSCTDTGRSDGFLWCSTTYNFEKDGKYGFCPHEALFTMGGNAEGQPCKFPFRFQGTSYDSCTTEGRTDGYRWCGTTEDYDRDKKYGFCPETAMSTVGGNSEGAPCVFPFTFLGNKYESCTSAGRSDGKMWCATTANYDDDRKWGFCPDQGYSLFLVAAHEFGHAMGLEHSQDPGALMAPIYTYTKNFRLSQDDIKGIQELYGASPDIDLGTGPTPTLGPVTPEICKQDIVFDGIAQIRGEIFFFKDRFIWRTVTPRDKPMGPLLVATFWPELPEKIDAVYEAPQEEKAVFFAGNEYWIYSASTLERGYPKPLTSLGLPPDVQRVDAAFNWSKNKKTYIFAGDKFWRYNEVKKKMDPGFPKLIADAWNAIPDNLDAVVDLQGGGHSYFFKGAYYLKLENQSLKSVKFGSIKSDWLGC,No detectable cleavage was observed by gelatinase A in an earlier experiment,88
